Measurements taken from patent US20060257938A1, “Method of screening for drugs that block ligand binding to a lipid binding protein” (priority 2005, published 2006).
Residue numbers refer to the chain shown, from its start. Several values for one entry are separate records, joined by “and”; a condition that tells them apart may be missing. Identical values can stand only once.

B1: 34C, 72A (protein, listed as Rattus norvegicus)
chain: AFDGTWKVDRNENYEKFMEKMGINVVKRKLGAHCNLKLTITQEGNKFTVKESSNFRNIDVVFELGVDFAYSAADGTELTGTWTMEGNKLVGKFKRVDNGKELIAVREISGNELIQTYTYEGVEAKRIFKKE
modifications: PEPTIDE (1)...(131) wild-type rat intestinal fatty acid binding protein
B2: 34V, 72A (protein, listed as Rattus norvegicus)
chain: B1 chain with C34V
modifications: PEPTIDE (1)...(131) wild-type rat intestinal fatty acid binding protein
B3: 34P, 72A (protein, listed as Rattus norvegicus)
chain: B1 chain with C34P
modifications: PEPTIDE (1)...(131) wild-type rat intestinal fatty acid binding protein
B4: 34N, 72A (protein, listed as Rattus norvegicus)
chain: B1 chain with C34N
modifications: PEPTIDE (1)...(131) wild-type rat intestinal fatty acid binding protein
B5: 36A, 72A (protein, listed as Rattus norvegicus)
chain: B1 chain with C34D, L36A
modifications: PEPTIDE (1)...(131) wild-type rat intestinal fatty acid binding protein
B6: 34Y, 72A (protein, listed as Rattus norvegicus)
chain: B1 chain with C34Y
modifications: PEPTIDE (1)...(131) wild-type rat intestinal fatty acid binding protein
B7: 34Q, 72A (protein, listed as Rattus norvegicus)
chain: B1 chain with C34Q
modifications: PEPTIDE (1)...(131) wild-type rat intestinal fatty acid binding protein
B8: 34R, 72A (protein, listed as Rattus norvegicus)
chain: B1 chain with C34R
modifications: PEPTIDE (1)...(131) wild-type rat intestinal fatty acid binding protein
B9: 34T, 72A (protein, listed as Rattus norvegicus)
chain: B1 chain with C34T
modifications: PEPTIDE (1)...(131) wild-type rat intestinal fatty acid binding protein
B10: 34W, 72A (protein, listed as Rattus norvegicus)
chain: B1 chain with C34W
modifications: PEPTIDE (1)...(131) wild-type rat intestinal fatty acid binding protein
B11: 34E, 72A (protein, listed as Rattus norvegicus)
chain: B1 chain with C34E
modifications: PEPTIDE (1)...(131) wild-type rat intestinal fatty acid binding protein
B12: 34G, 72A (protein, listed as Rattus norvegicus)
chain: B1 chain with C34G
modifications: PEPTIDE (1)...(131) wild-type rat intestinal fatty acid binding protein
B13: 34S, 72A (protein, listed as Rattus norvegicus)
chain: B1 chain with C34S
modifications: PEPTIDE (1)...(131) wild-type rat intestinal fatty acid binding protein
B14: 34K, 72A (protein, listed as Rattus norvegicus)
chain: B1 chain with C34K
modifications: PEPTIDE (1)...(131) wild-type rat intestinal fatty acid binding protein
B15: 36C3, 72A (protein, listed as Rattus norvegicus)
chain: B1 chain with C34D, L36C
modifications: PEPTIDE (1)...(131) wild-type rat intestinal fatty acid binding protein
B16: 34H, 72A (protein, listed as Rattus norvegicus)
chain: B1 chain with C34H
modifications: PEPTIDE (1)...(131) wild-type rat intestinal fatty acid binding protein
B17: 36D1, 72A (protein, listed as Rattus norvegicus)
chain: B1 chain with C34D, L36D
modifications: PEPTIDE (1)...(131) wild-type rat intestinal fatty acid binding protein

Test: Probe fluorescence ratio response to arachidonic acid relative to ADIFAB2
Assay type: binding
Settings: arachidonic acid; response relative to ADIFAB2
Method in brief: (§1)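 Fluorescently labeled rat intestinal FABP variants were read at two emission wavelengths, near the unbound maximum (about 420 to 480 nm) and the FFA-bound maximum (about 495 to 580 nm). R = Fλ1/Fλ2 after subtracting probe-free intensity; ΔR = R+agent − R0, normalized to ADIFAB2 (rI-FABP-L72A).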
With B1 the “DR/DR AA” value was 0.34. With B2 the “DR/DR AA” value was 1.22. With B3 the “DR/DR AA” value was 0.46. With B4 the “DR/DR AA” value was 1.19. With B5 the “DR/DR AA” value was 0.53. For B6, the “DR/DR AA” value was 1.22. For B7, the “DR/DR AA” value was 0.52. For B8, the “DR/DR AA” value was 0.41. With B9 the “DR/DR AA” value was 0.61. In the case of B10, the “DR/DR AA” value is reported as 1.31 and 1.060. In the case of B11, the “DR/DR AA” value is reported as 0.62 and 0.618. With B12 the “DR/DR AA” value was 0.54. With B13 the “DR/DR AA” value was 0.58. In the case of B14, the “DR/DR AA” value is reported as 0.43. In the case of B15, the “DR/DR AA” value is reported as −0.22. In the case of B16, the “DR/DR AA” value is reported as 0.65. For B17, the “DR/DR AA” value was 0.20.

Test: Probe fluorescence ratio response to linolenic acid relative to ADIFAB2
Assay type: binding
Settings: response relative to ADIFAB2
Method in brief: as §1
For B1, the “DR/DR LNA” value was 0.33. For B2, the “DR/DR LNA” value was 1.21. With B3 the “DR/DR LNA” value was 0.76. In the case of B4, the “DR/DR LNA” value is reported as 1.18. For B5, the “DR/DR LNA” value was 0.50. In the case of B6, the “DR/DR LNA” value is reported as 1.22. For B7, the “DR/DR LNA” value was 0.48. In the case of B8, the “DR/DR LNA” value is reported as 0.47. With B9 the “DR/DR LNA” value was 0.67. With B10 the “DR/DR LNA” value was 1.37 and 1.130. For B11, the “DR/DR LNA” value was 0.57 and 0.571. For B12, the “DR/DR LNA” value was 0.29. With B13 the “DR/DR LNA” value was 0.59. With B14 the “DR/DR LNA” value was 1.33. In the case of B15, the “DR/DR LNA” value is reported as −0.30. In the case of B16, the “DR/DR LNA” value is reported as 0.72. In the case of B17, the “DR/DR LNA” value is reported as 0.21.

Test: Probe fluorescence ratio response to linoleic acid relative to ADIFAB2
Assay type: binding
Settings: response relative to ADIFAB2
Method in brief: as §1
In the case of B1, the “DR/DR LA” value is reported as 0.59. In the case of B2, the “DR/DR LA” value is reported as 1.15. For B3, the “DR/DR LA” value was 0.66. For B4, the “DR/DR LA” value was 1.16. In the case of B5, the “DR/DR LA” value is reported as 0.51. With B6 the “DR/DR LA” value was 1.24. For B7, the “DR/DR LA” value was 0.56. With B8 the “DR/DR LA” value was 0.61. In the case of B9, the “DR/DR LA” value is reported as 0.64. With B10 the “DR/DR LA” value was 1.34 and 1.110. For B11, the “DR/DR LA” value was 0.60 and 0.604. With B12 the “DR/DR LA” value was 0.33. With B13 the “DR/DR LA” value was 0.65. In the case of B14, the “DR/DR LA” value is reported as 0.61. In the case of B15, the “DR/DR LA” value is reported as −0.36. In the case of B16, the “DR/DR LA” value is reported as 0.74. With B17 the “DR/DR LA” value was 0.27.

Test: Probe fluorescence ratio response to oleic acid relative to ADIFAB2
Assay type: binding
Settings: response relative to ADIFAB2
Method in brief: as §1
For B1, the “DR/DR OA” value was 0.30. In the case of B2, the “DR/DR OA” value is reported as 1.19. With B3 the “DR/DR OA” value was 0.46. In the case of B4, the “DR/DR OA” value is reported as 1.16. In the case of B5, the “DR/DR OA” value is reported as 0.46. In the case of B6, the “DR/DR OA” value is reported as 1.19. In the case of B7, the “DR/DR OA” value is reported as 0.44. For B8, the “DR/DR OA” value was 0.44. In the case of B9, the “DR/DR OA” value is reported as 0.53. In the case of B10, the “DR/DR OA” value is reported as 1.38 and 1.210. In the case of B11, the “DR/DR OA” value is reported as 0.49 and 0.486. With B12 the “DR/DR OA” value was 0.13. For B13, the “DR/DR OA” value was 0.58. For B14, the “DR/DR OA” value was 0.41. With B15 the “DR/DR OA” value was −0.40. With B16 the “DR/DR OA” value was 0.52. For B17, the “DR/DR OA” value was 0.20.

Test: Probe fluorescence ratio response to palmitic acid relative to ADIFAB2
Assay type: binding
Settings: response relative to ADIFAB2
Method in brief: as §1
For B1, the “DR/DR PA” value was 0.18. For B2, the “DR/DR PA” value was 1.11. For B3, the “DR/DR PA” value was 0.35. In the case of B4, the “DR/DR PA” value is reported as 1.11. With B5 the “DR/DR PA” value was 0.46. For B6, the “DR/DR PA” value was 1.06. With B7 the “DR/DR PA” value was 0.36. With B8 the “DR/DR PA” value was 0.30. For B9, the “DR/DR PA” value was 0.40. With B10 the “DR/DR PA” value was 0.93 and 0.920. With B11 the “DR/DR PA” value was 0.48 and 0.482. For B12, the “DR/DR PA” value was 0.18. In the case of B13, the “DR/DR PA” value is reported as 0.43. For B14, the “DR/DR PA” value was 0.26. For B15, the “DR/DR PA” value was −0.21. For B16, the “DR/DR PA” value was 0.38. In the case of B17, the “DR/DR PA” value is reported as 0.18.
